Here are results for one molecule from publication PMC12534491.

The target of the data set is T1, Tat peptide (arginine-rich motif) (HIV-1, UniProt P04608).
T1 chain: RKKRRQRRRPPQG
The data set is described as follows: in-cell NMR.

With GGGAGCUUGAUCCCGGAAACGGUCGAUCGCUCCC (structured_RNA) [anti-Tat RNA aptamer], the binding result is “binds”.
